Measurements from patent publication US20250290123.
Like-named read-outs stand apart in the source and are kept apart here.

Columns and labels:
[1] = system: LigAT_C-RNAseH-Ecoli (ATCV-1 ligase fused at C-terminus to inactive E. coli RNase H) (Acanthocystis turfacea chlorella virus 1 / Escherichia coli); conditions: CE ligation assay
[2] = system: LigAT-HU (control ligase); conditions: CE ligation assay, control buffer, 2 h 37 C
[3] = system: LigAT_C-RNAseH-Ecoli (ATCV-1 ligase fused at C-terminus to inactive E. coli RNase H) (Acanthocystis turfacea chlorella virus 1 / Escherichia coli); conditions: 5'-phosphate; Buffer 1B, 37-55 C, 2 h, 1 uM ligase
[4] = system: LigAT_C-RNAseH-Sto (Acanthocystis turfacea chlorella virus 1 / Sulfolobus tokodaii); conditions: 5'-phosphate; Buffer 2B, 37-55 C, 2 h
[5] = system: LigAT-HU (control ligase); conditions: 5'-phosphate; control buffer 37 C; less than 5% at 55 C

Substance	activity (% ligation yield) [1]	further results
AA junction RNA template with DNA substrates A and pA		activity (% ligation yield) ([1]; 5'-phosphate on SEQ 43, matched junction): 37
AC junction template and substrates	36	
AG junction template and substrates	23	activity (% ligation yield) [2]: < 10
AT junction template and substrates	37	
CA junction template and substrates	39	
CC junction template and substrates	33	activity (% ligation yield) [2]: < 10
CG junction template and substrates	17	activity (% ligation yield) [2]: < 10
CT junction template and substrates	43	
DNA padlock probes annealed to RNA template		activity (% ligated product) [3]: > 75; activity (% ligated product) [4]: > 75; activity (% ligated product) [5]: 25
GA junction template and substrates	48	
GC junction template and substrates	35	activity (% ligation yield) [2]: < 10
GG junction template and substrates	27	activity (% ligation yield) [2]: < 10
GT junction template and substrates	47	
TA junction template and substrates	45	
TC junction template and substrates	49	
TG junction template and substrates	40	
TT junction template and substrates	50	
